Measurements: US11278600B2, “Human alpha-galactosidase variants” (Codexis, Inc., priority 2014, dated 2022)
Changes are numbered by the printed parent chain.

B1: 245 (protein)
chain: LDNGLARTPTMGWLHWERFMCNLDCQEEPDSCISEKLFMEMAELMVSEGWKDAGYEYLCIDDCWMAPQRDSEGRLQADPQRFPHGIRQLANYVHSKGLKLGIYADVGNKTCAGFPGSFGYYDIDAQTFADWGVDLLKFDGCYCDSLENLADGYKHMSLALNRTGRSIVYSCEWPLYMWPFQKPNYTEIRQYCNHWRNFADIDDSWASIKSILDWTSFNQERIVDVAGPGGWNDPDMLVIGNFGLSWDQQVTQMALWAIMAAPLFMSNDLRHISPQAKALLQDKDVIAINQDPLGKQGYQLRKGDNFEVWERPLSGLAWAVAVINRQEIGGPRSYTIAVASLGKGVACNPACFITQLLPVKRKLGLYEWTSRLKSHVNPTGTVLLQLENTMQMSLKDLL
modifications: Synthetic Polypeptide sequence of Variant No. 245 of mature Human GLA
B2: 247 (protein)
chain: B1 chain with R221K, K302Q, K343D, L365F, V376I
modifications: Synthetic Polypeptide sequence of Variant No. 247 of mature Human GLA
B3: 253 (protein)
chain: B1 chain with K96I, L316D, V322M, A337P, L365F, E367D, T369D, K373R, V376I
modifications: Synthetic Polypeptide sequence of Variant No. 253 of mature Human GLA
B4: 251 (protein)
chain: B1 chain with K96I, F217R, K302Q, V322M, L365F, K373R, V376I
modifications: Synthetic Polypeptide sequence of Variant No. 251 of mature Human GLA
B5: 254 (protein)
chain: B1 chain with L100F, D247N, K302Q, V322M, L365F, K373R, V376I
modifications: Synthetic Polypeptide sequence of Variant No. 254 of mature Human GLA
B6: 249 (protein)
chain: B1 chain with R221T, D247N, K302Q, L365F, V376I
modifications: Synthetic Polypeptide sequence of Variant No. 249 of mature Human GLA
B7: 255 (protein)
chain: B1 chain with L100F, I208V, R221K, V322I, K343D, K373R
modifications: Synthetic Polypeptide sequence of Variant No. 255 of mature Human GLA
B8: 248 (protein)
chain: B1 chain with R221T, D247N, K302Q, K343G, L365F, V376I
modifications: Synthetic Polypeptide sequence of Variant No. 248 of mature Human GLA
B9: 252 (protein)
chain: B1 chain with K96I, K302Q, V322M, A350G, L365F, E367D, T369D, K373R, V376I
modifications: Synthetic Polypeptide sequence of Variant No. 252 of mature Human GLA
B10: 246 (protein)
chain: B1 chain with D247N, L316D, V322M, A337P, L365F, K373R, V376I
modifications: Synthetic Polypeptide sequence of Variant No. 246 of mature Human GLA
B11: 250 (protein)
chain: B1 chain with K96I, F217R, D247N, K302Q, V322M, L365F, K373R, V376I
modifications: Synthetic Polypeptide sequence of Variant No. 250 of mature Human GLA

Tests used:
Assay type in all cases: biochemical
[1] = HTP-analysis of supernatants pretreated with base (MUGal hydrolysis); settings: challenge at pH 7.6; activity of the variant/activity of Rd2BB (SEQ ID NO: 10); yeast culture supernatant
Procedure, shortened: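 GLA variants were secreted by transformed INVSc1 yeast grown 66-84 h at 30° C. Supernatants were exposed to neutral-to-basic buffers (pH 7.0-9.7) at 37° C for 1-18 h, then assayed with MUGal in acidic citrate/McIlvaine buffer, with fluorescence read after quenching.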

[2] = HTP-analysis of yeast culture supernatants, no challenge (MUGal hydrolysis); settings: activity of the variant/activity of Rd2BB (SEQ ID NO: 10), yeast culture supernatant
Procedure, shortened: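 Activity read as 4-methylumbelliferyl α-D-galactopyranoside hydrolysis: fluorescence (355/448 nm) after sodium carbonate stop, following 30-180 min at 37° C with 2 mM MUGal stock at pH 4.6–4.8. Enzyme source is unchallenged culture supernatant of INVSc1 yeast expressing GLA variants, grown 66-84 h at 30° C.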

[3] = HTP-analysis of supernatants pretreated with bovine serum (MUGal hydrolysis); settings: activity of the variant/activity of Rd2BB (SEQ ID NO: 10), yeast culture supernatant
Experimental: Yeast (INVSc1) cells transformed with vectors expressing GLA and GLA variants using the lithium acetate method were selected on SD-Ura agar plates. After 72 h incubation at 30° C. colonies were placed into the wells of Axygen® 1.1 ml 96-well deep well plates filled with 200 μl/well SD-Ura broth (2 g/L SD-Ura, 6.8 g/L yeast nitrogen base without amino acids [Sigma Aldrich]), 3.06 g/L sodium dihydrogen phosphate, 0.804 g/L disodium hydrogen phosphate, pH 6.0 supplemented with 6% glucose. The cells were allowed to grow for 20-24 hours in a Kuhner shaker (250 rpm, 30° C., and 85% relative humidity). Overnight culture samples (20 μL) were transferred into Corning Costar® 96-well deep plates filled with 380 µL of SD-ura broth supplemented with 2% glucose. The plates were incubated for 66-84 h in a Kuhner shaker (250 rpm, 30° C., and 85% relative humidity). The cells were then pelleted (4000 rpm×20 min), and the supernatants isolated and stored at 4° C. prior to analysis.
GLA variants were challenged with bovine serum to simulate the conditions the variants encounter following infusion into a patient. First, 20 μL of yeast culture supernatant and 80 μL, of bovine serum were added to the wells of a 96-well round bottom plate. The plates were sealed and incubated at 37° C. for 1 h. For the assay, 50 μL of serum-challenged sample was mixed with 25 μL, of 1 M citrate buffer pH 4.3 and 25 μL, of 4 mM MUGal in McIlvaine buffer pH 4.8. The reactions were mixed briefly and incubated at 37° C. for 180 minutes, prior to quenching with 100 μL, of 1 M sodium carbonate. Hydrolysis was analyzed using a SpectraMax® M2 microplate reader monitoring fluorescence (Ex. 355 nm, Em. 448 nm).

[4] = HTP-analysis of supernatants pretreated with acid (MUGal hydrolysis); settings: challenge at pH 4.2; activity of the variant/activity of Rd2BB (SEQ ID NO: 10); yeast culture supernatant
Procedure, shortened: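 Fluorescence of MUGal hydrolysis (Ex. 355 nm, Em. 448 nm) is read after sodium carbonate quench. The enzyme source is INVSc1 yeast culture supernatant, first exposed to pH 3.3-4.3 McIlvaine buffer at 37° C. for 1-3 h, then reacted at pH 4.8 for 30-180 minutes.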

Molecule	Relative Activity of GLA Variants After Challenge at pH 7.6 [1]	Relative Activity of GLA Variants After No Challenge (NC) [2]	Relative Activity of GLA Variants After Challenge with Serum [3]	Relative Activity of GLA Variants After Challenge at pH 4.2 [4]
B1	+++ (+++ = >2.5 relative activity over Rd2BB (SEQ ID NO: 10))	++ (++ = 1.5 to 2.5 relative activity over Rd2BB (SEQ ID NO: 10))	++ (++ = 1.5 to 2.5 relative activity over Rd2BB (SEQ ID NO: 10))	+++ (+++ = >2.5 relative activity over Rd2BB (SEQ ID NO: 10))
B2	+++ (+++ = >2.5 relative activity over Rd2BB (SEQ ID NO: 10))	+++ (+++ = >2.5 relative activity over Rd2BB (SEQ ID NO: 10))	+++ (+++ = >2.5 relative activity over Rd2BB (SEQ ID NO: 10))	+++ (+++ = >2.5 relative activity over Rd2BB (SEQ ID NO: 10))
B3	+++ (+++ = >2.5 relative activity over Rd2BB (SEQ ID NO: 10))	+++ (+++ = >2.5 relative activity over Rd2BB (SEQ ID NO: 10))	+++ (+++ = >2.5 relative activity over Rd2BB (SEQ ID NO: 10))	+++ (+++ = >2.5 relative activity over Rd2BB (SEQ ID NO: 10))
B4	++ (++ = 1.5 to 2.5 relative activity over Rd2BB (SEQ ID NO: 10))	++ (++ = 1.5 to 2.5 relative activity over Rd2BB (SEQ ID NO: 10))	+ (+ = 0.5 to 1.5 relative activity over Rd2BB (SEQ ID NO: 10))	+ (+ = 0.5 to 1.5 relative activity over Rd2BB (SEQ ID NO: 10))
B5	+ (+ = 0.5 to 1.5 relative activity over Rd2BB (SEQ ID NO: 10))	+ (+ = 0.5 to 1.5 relative activity over Rd2BB (SEQ ID NO: 10))	+ (+ = 0.5 to 1.5 relative activity over Rd2BB (SEQ ID NO: 10))	+ (+ = 0.5 to 1.5 relative activity over Rd2BB (SEQ ID NO: 10))
B6	+++ (+++ = >2.5 relative activity over Rd2BB (SEQ ID NO: 10))	++ (++ = 1.5 to 2.5 relative activity over Rd2BB (SEQ ID NO: 10))	++ (++ = 1.5 to 2.5 relative activity over Rd2BB (SEQ ID NO: 10))	++ (++ = 1.5 to 2.5 relative activity over Rd2BB (SEQ ID NO: 10))
B7	+++ (+++ = >2.5 relative activity over Rd2BB (SEQ ID NO: 10))	+++ (+++ = >2.5 relative activity over Rd2BB (SEQ ID NO: 10))	++ (++ = 1.5 to 2.5 relative activity over Rd2BB (SEQ ID NO: 10))	+++ (+++ = >2.5 relative activity over Rd2BB (SEQ ID NO: 10))
B8	+ (+ = 0.5 to 1.5 relative activity over Rd2BB (SEQ ID NO: 10))	+ (+ = 0.5 to 1.5 relative activity over Rd2BB (SEQ ID NO: 10))	+ (+ = 0.5 to 1.5 relative activity over Rd2BB (SEQ ID NO: 10))	+ (+ = 0.5 to 1.5 relative activity over Rd2BB (SEQ ID NO: 10))
B9	+++ (+++ = >2.5 relative activity over Rd2BB (SEQ ID NO: 10))	+++ (+++ = >2.5 relative activity over Rd2BB (SEQ ID NO: 10))	+++ (+++ = >2.5 relative activity over Rd2BB (SEQ ID NO: 10))	+++ (+++ = >2.5 relative activity over Rd2BB (SEQ ID NO: 10))
B10	+++ (+++ = >2.5 relative activity over Rd2BB (SEQ ID NO: 10))	+++ (+++ = >2.5 relative activity over Rd2BB (SEQ ID NO: 10))	+++ (+++ = >2.5 relative activity over Rd2BB (SEQ ID NO: 10))	+++ (+++ = >2.5 relative activity over Rd2BB (SEQ ID NO: 10))
B11	+ (+ = 0.5 to 1.5 relative activity over Rd2BB (SEQ ID NO: 10))	+ (+ = 0.5 to 1.5 relative activity over Rd2BB (SEQ ID NO: 10))	+ (+ = 0.5 to 1.5 relative activity over Rd2BB (SEQ ID NO: 10))	+ (+ = 0.5 to 1.5 relative activity over Rd2BB (SEQ ID NO: 10))
